The labels stand for the following.
T1: PUF4 RNA-binding domain (Saccharomyces cerevisiae, UniProt P25339 537-888)
T1 sequence: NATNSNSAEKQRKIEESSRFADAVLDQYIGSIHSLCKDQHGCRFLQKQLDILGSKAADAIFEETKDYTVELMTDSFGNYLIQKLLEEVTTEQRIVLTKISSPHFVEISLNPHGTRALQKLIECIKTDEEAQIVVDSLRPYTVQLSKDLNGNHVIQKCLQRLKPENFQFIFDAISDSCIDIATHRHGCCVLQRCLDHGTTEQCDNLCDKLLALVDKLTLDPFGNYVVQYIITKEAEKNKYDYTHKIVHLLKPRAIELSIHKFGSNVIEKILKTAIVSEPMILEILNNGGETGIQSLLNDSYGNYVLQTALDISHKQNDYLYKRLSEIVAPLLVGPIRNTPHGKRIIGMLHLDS

This series addresses T1, PUF4 RNA-binding domain. Nature of the series: Mg; RNA-MaP; 20 mM Na-HEPES pH 7.4, 30 mM KOAc, 0.75 mM MgCl2, 0.1% Tween-20, 5% glycerol, 0.1 mg/mL BSA, 2 mM DTT; 25 C; 0.0125-409.6 nM protein. Conditions: tags: N-His6-TEV cleaved; C-SNAP kept, Cy3B-labelled; label: tethered on chip by stalled RNA polymerase.
Take UCUCUUUGUAGUAUUUUCUCUU (ssRNA) [Ib_S1_P5E.1_K5.1_C5.1_H5.1_A5.1_[T5G]_F5.1_[A10T]_T5.1]: the Kd (usually the equilibrium constant for the complex coming apart) was determined as 101 nM.
Regarding UCUCUUUGUAUAAUUCUCUCUU (ssRNA) [Ib_S1_P5E.1_K5.1_C5.1_H5.1_A5.1_[T6A]_F5.1_[A10C]_T5.1], the Kd was found to be 10.6 nM.
Then ACAAACGCUAUAUAUUAAUACAAAC (ssRNA) [Id_ii_S3_P4E.3_K4.2_C4.2_[C-2G]_[T-1C]_H4.2_A4.1_F4.1_T4.2_[G10A]], with 19.9 nM; and ACAAACAUACACUAUACCACAAAC (ssRNA) [Id_ii_S3_P3E.4_K3.3_C3.2_[C-2A]_H3.3_A3.1_F3.1_T3.2_[T9C]_[A10C]], with 1760 nM; and UCUCUUUGUAAUAUUUUCUCUU (ssRNA) [Ib_S1_P5E.1_K5.1_C5.1_H5.1_A5.1_[T5A]_F5.1_[A10T]_T5.1], with 15 nM.
Then ACAAACGAUAUAUAUUAACACAAAC (ssRNA) [Id_ii_S3_P4E.3_K4.2_C4.2_[C-2G]_[T-1A]_H4.2_A4.1_F4.1_T4.2_[G10A]_[T11C]], with 52.9 nM; and ACAAACAUACACUAUAACACAAAC (ssRNA) [Id_ii_S3_P3E.4_K3.3_C3.2_[C-2A]_H3.3_A3.1_F3.1_T3.2_[T9A]_[A10C]], with 1680 nM.
Then ACAAACACACACUAUAGCACAAAC (ssRNA) [Id_ii_S3_P3E.4_K3.3_C3.2_[C-2A]_[T-1C]_H3.3_A3.1_F3.1_T3.2_[T9G]_[A10C]], with more than 2300 nM.
On to ACAAACCUACACUAUAUGACAAAC (ssRNA) [Id_ii_S3_P3E.4_K3.3_C3.2_H3.3_A3.1_F3.1_T3.2_[A10G]], for which the Kd was more than 2300 nM.
Then ACAAACGAUAUAUAUUAAGACAAAC (ssRNA) [Id_ii_S3_P4E.3_K4.2_C4.2_[C-2G]_[T-1A]_H4.2_A4.1_F4.1_T4.2_[G10A]_[T11G]], with 76.8 nM; and ACAAACUCACACUAUAGAACAAAC (ssRNA) [Id_ii_S3_P3E.4_K3.3_C3.2_[C-2T]_[T-1C]_H3.3_A3.1_F3.1_T3.2_[T9G]], with more than 2300 nM.
Take ACAAACUAACACUAUAUAACAAAC (ssRNA) [Id_ii_S3_P3E.4_K3.3_C3.2_[C-2T]_[T-1A]_H3.3_A3.1_F3.1_T3.2]: the Kd was more than 2300 nM.
Molecule ACAAACCUACACUAUAAAACAAAC (ssRNA) [Id_ii_S3_P3E.4_K3.3_C3.2_H3.3_A3.1_F3.1_T3.2_[T9A]] had a dissociation constant Kd of more than 2300 nM.
Next, ACAAACUUACACUAUAGCACAAAC (ssRNA) [Id_ii_S3_P3E.4_K3.3_C3.2_[C-2T]_H3.3_A3.1_F3.1_T3.2_[T9G]_[A10C]]: 2170 nM; ACAAACCUACACUAUAGCACAAAC (ssRNA) [Id_ii_S3_P3E.4_K3.3_C3.2_H3.3_A3.1_F3.1_T3.2_[T9G]_[A10C]]: 2260 nM; ACAAACACACACUAUAUUACAAAC (ssRNA) [Id_ii_S3_P3E.4_K3.3_C3.2_[C-2A]_[T-1C]_H3.3_A3.1_F3.1_T3.2_[A10T]]: 1650 nM.
Next, ACAAACUCACACUAUAUUACAAAC (ssRNA) [Id_ii_S3_P3E.4_K3.3_C3.2_[C-2T]_[T-1C]_H3.3_A3.1_F3.1_T3.2_[A10T]]: 2080 nM; ACAAACUGACACUAUAUUACAAAC (ssRNA) [Id_ii_S3_P3E.4_K3.3_C3.2_[C-2T]_[T-1G]_H3.3_A3.1_F3.1_T3.2_[A10T]]: 1340 nM.
Next, ACAAACAGACACUAUACAACAAAC (ssRNA) [Id_ii_S3_P3E.4_K3.3_C3.2_[C-2A]_[T-1G]_H3.3_A3.1_F3.1_T3.2_[T9C]]: more than 2300 nM; ACAAACAAACACUAUAGGACAAAC (ssRNA) [Id_ii_S3_P3E.4_K3.3_C3.2_[C-2A]_[T-1A]_H3.3_A3.1_F3.1_T3.2_[T9G]_[A10G]]: more than 2300 nM; ACAAACUCACACUAUAGCACAAAC (ssRNA) [Id_ii_S3_P3E.4_K3.3_C3.2_[C-2T]_[T-1C]_H3.3_A3.1_F3.1_T3.2_[T9G]_[A10C]]: more than 2300 nM.
As for ACAAACGAUAUAUAUUACAACAAAC (ssRNA) [Id_ii_S3_P4E.3_K4.2_C4.2_[C-2G]_[T-1A]_H4.2_A4.1_F4.1_T4.2_[G10C]_[T11A]], binding was characterised by a dissociation constant (Kd) of 50.4 nM.
For the molecule ACAAACCCACACUAUACGACAAAC (ssRNA) [Id_ii_S3_P3E.4_K3.3_C3.2_[T-1C]_H3.3_A3.1_F3.1_T3.2_[T9C]_[A10G]], the Kd is more than 2300 nM.
Then ACAAACUGACACUAUAAGACAAAC (ssRNA) [Id_ii_S3_P3E.4_K3.3_C3.2_[C-2T]_[T-1G]_H3.3_A3.1_F3.1_T3.2_[T9A]_[A10G]], with more than 2300 nM.
Turning to ACAAACGAUAUAUAUUAUGACAAAC (ssRNA) [Id_ii_S3_P4E.3_K4.2_C4.2_[C-2G]_[T-1A]_H4.2_A4.1_F4.1_T4.2_[G10T]_[T11G]], the Kd is 48.6 nM.
On to ACAAACCUACACUAUACUACAAAC (ssRNA) [Id_ii_S3_P3E.4_K3.3_C3.2_H3.3_A3.1_F3.1_T3.2_[T9C]_[A10T]], for which the Kd is more than 2300 nM.
ACAAACCUACACUAUACAACAAAC (ssRNA) [Id_ii_S3_P3E.4_K3.3_C3.2_H3.3_A3.1_F3.1_T3.2_[T9C]] displayed a Kd of 1880 nM.
Next, ACAAACUUACACUAUAAAACAAAC (ssRNA) [Id_ii_S3_P3E.4_K3.3_C3.2_[C-2T]_H3.3_A3.1_F3.1_T3.2_[T9A]]: more than 2300 nM; ACAAACCGACACUAUACUACAAAC (ssRNA) [Id_ii_S3_P3E.4_K3.3_C3.2_[T-1G]_H3.3_A3.1_F3.1_T3.2_[T9C]_[A10T]]: more than 2300 nM.
Next, ACAAACAUACACUAUACUACAAAC (ssRNA) [Id_ii_S3_P3E.4_K3.3_C3.2_[C-2A]_H3.3_A3.1_F3.1_T3.2_[T9C]_[A10T]]: 1070 nM; ACAAACUUACACUAUAUUACAAAC (ssRNA) [Id_ii_S3_P3E.4_K3.3_C3.2_[C-2T]_H3.3_A3.1_F3.1_T3.2_[A10T]]: 959 nM; ACAAACCUACACUAUAUCACAAAC (ssRNA) [Id_ii_S3_P3E.4_K3.3_C3.2_H3.3_A3.1_F3.1_T3.2_[A10C]]: 1760 nM.
For the molecule ACAAACGCUAUAUAUUAUCACAAAC (ssRNA) [Id_ii_S3_P4E.3_K4.2_C4.2_[C-2G]_[T-1C]_H4.2_A4.1_F4.1_T4.2_[G10T]_[T11C]], the Kd was found to be 20.1 nM.
Then ACAAACUAACACUAUAUUACAAAC (ssRNA) [Id_ii_S3_P3E.4_K3.3_C3.2_[C-2T]_[T-1A]_H3.3_A3.1_F3.1_T3.2_[A10T]], with 2240 nM; and ACAAACAUACACUAUAUUACAAAC (ssRNA) [Id_ii_S3_P3E.4_K3.3_C3.2_[C-2A]_H3.3_A3.1_F3.1_T3.2_[A10T]], with 556 nM; and ACAAACAAACACUAUACAACAAAC (ssRNA) [Id_ii_S3_P3E.4_K3.3_C3.2_[C-2A]_[T-1A]_H3.3_A3.1_F3.1_T3.2_[T9C]], with more than 2300 nM.
ACAAACAUACACUAUAGAACAAAC (ssRNA) [Id_ii_S3_P3E.4_K3.3_C3.2_[C-2A]_H3.3_A3.1_F3.1_T3.2_[T9G]] returned a Kd of 1310 nM.
Consider ACAAACCCACACUAUAGCACAAAC (ssRNA) [Id_ii_S3_P3E.4_K3.3_C3.2_[T-1C]_H3.3_A3.1_F3.1_T3.2_[T9G]_[A10C]], for which the dissociation constant Kd was more than 2300 nM.
In turn, UCUCUUUGUACUAUUUUCUCUU (ssRNA) [Ib_S1_P5E.1_K5.1_C5.1_H5.1_A5.1_[T5C]_F5.1_[A10T]_T5.1] showed a Kd of 10.2 nM.
In turn, ACAAACCGACACUAUACAACAAAC (ssRNA) [Id_ii_S3_P3E.4_K3.3_C3.2_[T-1G]_H3.3_A3.1_F3.1_T3.2_[T9C]] displayed a Kd of more than 2300 nM.
For the molecule ACAAACGCUAUAUAUUACAACAAAC (ssRNA) [Id_ii_S3_P4E.3_K4.2_C4.2_[C-2G]_[T-1C]_H4.2_A4.1_F4.1_T4.2_[G10C]_[T11A]], binding was put at a Kd of 24.5 nM.
Next, ACAAACCGACACUAUAAAACAAAC (ssRNA) [Id_ii_S3_P3E.4_K3.3_C3.2_[T-1G]_H3.3_A3.1_F3.1_T3.2_[T9A]]: more than 2300 nM; ACAAACACACACUAUAUCACAAAC (ssRNA) [Id_ii_S3_P3E.4_K3.3_C3.2_[C-2A]_[T-1C]_H3.3_A3.1_F3.1_T3.2_[A10C]]: more than 2300 nM; ACAAACCCACACUAUAAGACAAAC (ssRNA) [Id_ii_S3_P3E.4_K3.3_C3.2_[T-1C]_H3.3_A3.1_F3.1_T3.2_[T9A]_[A10G]]: more than 2300 nM.
Then ACAAACGCUAUAUAUUACCACAAAC (ssRNA) [Id_ii_S3_P4E.3_K4.2_C4.2_[C-2G]_[T-1C]_H4.2_A4.1_F4.1_T4.2_[G10C]_[T11C]], with 27.1 nM; and ACAAACUUACACUAUAUAACAAAC (ssRNA) [Id_ii_S3_P3E.4_K3.3_C3.2_[C-2T]_H3.3_A3.1_F3.1_T3.2], with 968 nM.
On to UCUCUUUGUAAUAUUCUCUCUU (ssRNA) [Ib_S1_P5E.1_K5.1_C5.1_H5.1_A5.1_[T5A]_F5.1_[A10C]_T5.1], for which the affinity, expressed as Kd, was 21.6 nM.
Next, ACAAACGAUAUAUAUUAUAACAAAC (ssRNA) [Id_ii_S3_P4E.3_K4.2_C4.2_[C-2G]_[T-1A]_H4.2_A4.1_F4.1_T4.2_[G10T]_[T11A]]: 41.7 nM; ACAAACGCUAUAUAUUAUUACAAAC (ssRNA) [Id_ii_S3_P4E.3_K4.2_C4.2_[C-2G]_[T-1C]_H4.2_A4.1_F4.1_T4.2_[G10T]]: 14.4 nM; ACAAACAGACACUAUAUUACAAAC (ssRNA) [Id_ii_S3_P3E.4_K3.3_C3.2_[C-2A]_[T-1G]_H3.3_A3.1_F3.1_T3.2_[A10T]]: 2200 nM.
Then ACAAACCUACACUAUAAUACAAAC (ssRNA) [Id_ii_S3_P3E.4_K3.3_C3.2_H3.3_A3.1_F3.1_T3.2_[T9A]_[A10T]], with more than 2300 nM; and ACAAACCGACACUAUAUAACAAAC (ssRNA) [Id_ii_S3_P3E.4_K3.3_C3.2_[T-1G]_H3.3_A3.1_F3.1_T3.2], with more than 2300 nM; and ACAAACAUACACUAUAUCACAAAC (ssRNA) [Id_ii_S3_P3E.4_K3.3_C3.2_[C-2A]_H3.3_A3.1_F3.1_T3.2_[A10C]], with 1230 nM.
Then ACAAACCUACACUAUAGAACAAAC (ssRNA) [Id_ii_S3_P3E.4_K3.3_C3.2_H3.3_A3.1_F3.1_T3.2_[T9G]], with more than 2300 nM; and ACAAACGGUAUAUAUUAAGACAAAC (ssRNA) [Id_ii_S3_P4E.3_K4.2_C4.2_[C-2G]_[T-1G]_H4.2_A4.1_F4.1_T4.2_[G10A]_[T11G]], with 48.8 nM.
ACAAACCCACACUAUAUUACAAAC (ssRNA) [Id_ii_S3_P3E.4_K3.3_C3.2_[T-1C]_H3.3_A3.1_F3.1_T3.2_[A10T]] showed a Kd of 2120 nM.
Next, ACAAACGAUAUAUAUUACCACAAAC (ssRNA) [Id_ii_S3_P4E.3_K4.2_C4.2_[C-2G]_[T-1A]_H4.2_A4.1_F4.1_T4.2_[G10C]_[T11C]]: 53.1 nM.
UCUCUUUGUAUGAUUCUCUCUU (ssRNA) [Ib_S1_P5E.1_K5.1_C5.1_H5.1_A5.1_[T6G]_F5.1_[A10C]_T5.1] came in with a Kd of 90 nM.

These data come from PMC9352680, “A comprehensive thermodynamic model for RNA binding by the Saccharomyces cerevisiae Pumilio protein PUF4”.
